Assay [1] has as its target T1, HER2 protein (R&D Systems, Inc., Catalog No. 1129-ER) (UniProt P04626 23-652).
T1 construct: Bought reagent
As to the kind of experiment: SPR, Biacore T200; reference is the wild-type anti-HER2 antibody. As to the method: (§1) The affinity of the prepared variants was measured using Biacore (registered trademark) T200 (GE Healthcare). […] Antigen was immobilized (immobilization: 50 RU) to a sensor chip for Biacore (registered trademark) Series S Sensor Chip CMS (GE Healthcare). The antibody solution was diluted to prepare antibody solutions of 30 nM, 15 nM, 7.5 nM, 3.75 nM and […]. The antibody solutions at each concentration were delivered to Biacore (registered trademark) T200 (GE Healthcare) (association time of 120 seconds and dissociation time of 1800 seconds). Measurement data was analyzed using Biacore (registered trademark) Evaluation software, and the data on the affinity of each antibody was obtained.
(§2) In the measurement, TSH protein (R&D Systems, Inc.) was used as an antigen of the anti-TSH antibody, and HER2 protein (R&D Systems, Inc., Catalog No. 1129-ER) was used as an antigen of the anti-HER2 antibody.

Assay [2] deals with T1, HER2 protein (R&D Systems, Inc., …). As to the kind of experiment: SPR, Biacore T200; antigen immobilised, antibody as analyte. The protocol: as §1, §2
Background: In SPR one partner is held on a chip, and binding of the other changes the refractive index at the surface.

Data on one molecule can be found in patent US20210230304A1 (SYSMEX, published 2021).

B1: 76, 77, 81 variant (Arg) of the humanized anti-HER2 antibody (antibody, V domains shown)
VH: not shown
VL: DIQMTQSPSSLSASVGDRVTITCRASQDVNTAVAWYQQKPGKAPKLLIYSASFLYSGVPSRFSGSRSGTDFTLTIRRLQPRDFATYYCQQHYTTPPTFGQGTKVEIKR
Usually Kd stands for a measure of binding affinity in units of concentration. The low end stands for tighter binding, the high end for weaker binding. For the molecule B1, the “Ratio (Kd against wild-type = 1)” value in assay [1] worked out at 2.71. In assay [2], the Kd was found to be 0.0219 nM.
